Molecular target: the molecule itself
Test: AUC; sedimentation equilibrium, Beckman Optima XL/I, AN-50Ti rotor; 300 mM NaCl, 50 mM Tris-HCl, pH 7.5

B1: Plasmodium falciparum cytosolic iron superoxide dismutase (enzyme, Plasmodium falciparum (3D7), UniProt Q8IAY6 1-198, looked up)
chain: MVITLPKLKYALNALSPHISEETLNFHYNKHHAGYVNKLNTLIKDTPFAEKSLLDIVKESSGAIFNNAAQIWNHTFYWDSMGPDCGGEPHGEIKEKIQEDFGSFNNFKEQFSNILCGHFGSGWGWLALNNNNKLVILQTHDAGNPIKDNTGIPILTCDIWEHAYYIDYRNDRASYVKAWWNLVNWNFANENLKKAMQK
notes: cytosolic iron superoxide dismutase of Plasmodium falciparum (3D7), residues 1-198, amplified from genomic DNA; The calculated monomer mass is 23,799 Da; In the crystal Lys198 and the eight residues of the tag are not seen; also called PfFeSOD; PfSOD; source: E. coli BL21-CodonPlus, purified (Ni-NTA, Superdex 75 size exclusion)
stoichiometry N: 2

Source: article PMC1618392, “The crystal structure of superoxide dismutase from Plasmodium falciparum” (BMC Structural Biology, 2006)
